Patent publication EP1789452B1 (Janssen Pharmaceutica NV, dated 2006)
Ends that are not written are not given here.

T1: human GPCR135 (human, UniProt Q9NSD7 1-469)
T1 construct: also called SALPR
T1 sequence: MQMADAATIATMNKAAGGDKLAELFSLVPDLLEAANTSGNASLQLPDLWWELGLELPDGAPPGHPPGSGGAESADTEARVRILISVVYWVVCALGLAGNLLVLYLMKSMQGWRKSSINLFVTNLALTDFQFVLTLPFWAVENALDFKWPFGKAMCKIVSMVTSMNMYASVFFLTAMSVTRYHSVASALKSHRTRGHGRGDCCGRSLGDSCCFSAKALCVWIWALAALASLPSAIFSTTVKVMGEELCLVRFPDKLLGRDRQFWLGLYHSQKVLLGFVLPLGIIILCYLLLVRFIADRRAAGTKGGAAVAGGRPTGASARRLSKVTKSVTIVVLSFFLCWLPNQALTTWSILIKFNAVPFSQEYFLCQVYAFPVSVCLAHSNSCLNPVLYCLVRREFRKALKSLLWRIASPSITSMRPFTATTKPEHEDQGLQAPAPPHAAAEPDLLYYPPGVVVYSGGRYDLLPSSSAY

T2: human LGR7 (human, UniProt Q9HBX9 1-757)
T2 sequence (looked up): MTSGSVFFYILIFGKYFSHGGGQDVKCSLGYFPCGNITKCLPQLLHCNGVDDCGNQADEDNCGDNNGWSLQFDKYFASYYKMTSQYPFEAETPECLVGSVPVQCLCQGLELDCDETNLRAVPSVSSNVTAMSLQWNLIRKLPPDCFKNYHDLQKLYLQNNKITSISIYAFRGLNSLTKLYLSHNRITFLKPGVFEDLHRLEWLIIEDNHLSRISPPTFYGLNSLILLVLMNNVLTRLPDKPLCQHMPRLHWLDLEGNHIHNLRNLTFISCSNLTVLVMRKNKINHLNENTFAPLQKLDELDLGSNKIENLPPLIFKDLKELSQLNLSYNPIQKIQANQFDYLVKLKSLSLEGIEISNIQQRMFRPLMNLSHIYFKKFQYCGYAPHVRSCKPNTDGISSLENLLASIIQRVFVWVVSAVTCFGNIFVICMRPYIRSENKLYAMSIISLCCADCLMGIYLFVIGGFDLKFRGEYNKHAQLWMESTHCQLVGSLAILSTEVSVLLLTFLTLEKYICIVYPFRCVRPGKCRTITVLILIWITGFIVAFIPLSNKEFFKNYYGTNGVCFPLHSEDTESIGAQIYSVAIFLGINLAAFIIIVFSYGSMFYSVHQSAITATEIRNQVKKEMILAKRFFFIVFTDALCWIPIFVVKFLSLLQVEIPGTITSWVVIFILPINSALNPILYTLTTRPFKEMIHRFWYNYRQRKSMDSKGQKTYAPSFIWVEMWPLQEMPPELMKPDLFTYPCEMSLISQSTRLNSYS

T3: rat LGR7 (rat, UniProt Q6R6I6 1-758)
T3 construct: whole, on cells; Membranes of COS-7 cells transiently expressing rat LGR7; also called rat recombinant LGR7
T3 sequence (looked up): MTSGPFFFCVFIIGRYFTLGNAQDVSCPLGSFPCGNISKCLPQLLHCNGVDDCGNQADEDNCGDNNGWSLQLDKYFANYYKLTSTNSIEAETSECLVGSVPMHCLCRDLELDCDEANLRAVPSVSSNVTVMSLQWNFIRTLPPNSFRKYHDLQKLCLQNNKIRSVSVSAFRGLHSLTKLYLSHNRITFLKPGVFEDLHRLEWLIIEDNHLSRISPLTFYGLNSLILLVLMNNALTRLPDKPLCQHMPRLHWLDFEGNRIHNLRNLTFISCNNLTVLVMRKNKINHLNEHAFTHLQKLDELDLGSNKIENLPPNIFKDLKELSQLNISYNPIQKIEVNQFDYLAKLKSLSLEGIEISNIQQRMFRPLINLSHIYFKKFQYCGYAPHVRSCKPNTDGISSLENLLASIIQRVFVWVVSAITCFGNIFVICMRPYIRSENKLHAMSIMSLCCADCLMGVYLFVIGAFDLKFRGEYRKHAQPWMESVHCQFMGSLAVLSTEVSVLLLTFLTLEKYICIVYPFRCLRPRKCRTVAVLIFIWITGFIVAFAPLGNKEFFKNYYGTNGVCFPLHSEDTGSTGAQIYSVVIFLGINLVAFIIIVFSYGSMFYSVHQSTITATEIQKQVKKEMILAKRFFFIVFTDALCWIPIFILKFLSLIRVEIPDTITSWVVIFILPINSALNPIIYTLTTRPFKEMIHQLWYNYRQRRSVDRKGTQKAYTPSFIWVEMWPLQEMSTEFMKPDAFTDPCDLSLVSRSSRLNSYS


How the values were obtained:
human GPCR135 [1] = molecular target: T1, human GPCR135; assay: competition with 100 pM [125I]-relaxin-3, COS-7 membranes with human GPCR135
human GPCR135 [2] = molecular target: T1, human GPCR135; assay: cell-based or functional assay
human LGR7 [3] = molecular target: T2, human LGR7; assay: cell-based or functional assay
human GPCR142 [4] = molecular target: T4, human GPCR142 (human, UniProt Q8TDU9 1-374); assay: cell-based or functional assay
human LGR7 [5] = molecular target: T2, human LGR7; assay: radioligand competition, human LGR7 (Table 1 prints 12.9)
human LGR8 [6] = molecular target: T5, human LGR8 (human, UniProt Q8WXD0 1-754); assay: competition with 100 pM [125I]-INSL3, live COS-7 cells expressing human LGR8; ND denotes no activity was detected
T5 construct: whole, on cells; also called LGRB

human GPCR142 [7] = molecular target: T4, human GPCR142; assay: competition with 100 pM [125I]-relaxin-3, COS-7 membranes with human GPCR142
human LGR7 [8] = molecular target: T2, human LGR7; assay: competition with 100 pM [125I]-relaxin-3, live COS-7 cells with human LGR7
human LGR8 [9] = molecular target: T5, human LGR8; assay: competition with 100 pM [125I]-INSL3, live COS-7 cells with human LGR8
human LGR8 [10] = molecular target: T5, human LGR8; assay: cell-based or functional assay
human LGR8 [11] = molecular target: T5, human LGR8; assay: radioligand competition with [125I]-INSL3, human LGR8; lower end tied to R3/I3 by Table 1
human GPCR135 [12] = molecular target: T1, human GPCR135; assay: cell-based or functional assay; remark: listed apart in the source
human GPCR142 [13] = molecular target: T4, human GPCR142; assay: cell-based or functional assay; remark: listed apart in the source
human LGR8 [14] = molecular target: T5, human LGR8; assay: cell-based or functional assay; remark: listed apart in the source
rat LGR7 = molecular target: T3, rat LGR7; assay: competition with 100 pM [125I] human relaxin-2, COS-7 membranes with rat LGR7
human GPCR135 [15] = molecular target: T1, human GPCR135; assay: discussion of the radioligand binding results of Examples 3-5
human LGR7 [16] = molecular target: T2, human LGR7; assay: as above
human LGR7 [17] = molecular target: T2, human LGR7; assay: radioligand competition, human LGR7 (Table 1 prints 724 nM)
rat GPCR135 [18] = molecular target: T6, rat GPCR135 (rat, UniProt Q5Y987 29-469); assay: competition with 100 pM [125I] human R3, COS-7 membranes with rat GPCR135
T6 construct: whole, on cells; also called rat recombinant GPCR135

rat GPCR135 [19] = molecular target: T6, rat GPCR135; assay: ratio of IC50 values from radioligand competition on rat GPCR135 and rat LGR7
human LGR7 [20] = molecular target: T2, human LGR7; assay: competition with 100 pM [125I]-relaxin-3, live COS-7 cells expressing human LGR7; ND denotes no activity was detected
rat GPCR135 [21] = molecular target: T6, rat GPCR135; assay: quantitative receptor autoradiography, displacement of 7 pM [125I]R3/I5 from rat brain sections; superior colliculus; unit from paragraph 235
rat GPCR135 [22] = molecular target: T6, rat GPCR135; assay: quantitative receptor autoradiography, displacement of 7 pM [125I]R3/I5 from rat brain sections; cortex; unit from paragraph 235
human LGR7 [23] = molecular target: T2, human LGR7; assay: cell-based or functional assay; remark: listed apart in the source
rat GPCR135 [24] = molecular target: T6, rat GPCR135; assay: quantitative receptor autoradiography, displacement of 7 pM [125I]R3/I5 from rat brain sections; olfactory bulb; unit from paragraph 235

T4 sequence (Q8TDU9 whole entry L329S, form in doubt): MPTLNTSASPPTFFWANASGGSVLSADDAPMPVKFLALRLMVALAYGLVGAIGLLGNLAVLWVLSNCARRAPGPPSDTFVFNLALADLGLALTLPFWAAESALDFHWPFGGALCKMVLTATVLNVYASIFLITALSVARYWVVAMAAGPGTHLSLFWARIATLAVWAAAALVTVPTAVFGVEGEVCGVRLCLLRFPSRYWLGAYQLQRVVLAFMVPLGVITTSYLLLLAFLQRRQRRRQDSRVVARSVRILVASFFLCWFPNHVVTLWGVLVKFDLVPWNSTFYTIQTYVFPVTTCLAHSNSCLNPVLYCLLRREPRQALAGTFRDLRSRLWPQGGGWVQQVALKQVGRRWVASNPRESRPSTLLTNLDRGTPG
T5 sequence (Q8WXD0 whole entry): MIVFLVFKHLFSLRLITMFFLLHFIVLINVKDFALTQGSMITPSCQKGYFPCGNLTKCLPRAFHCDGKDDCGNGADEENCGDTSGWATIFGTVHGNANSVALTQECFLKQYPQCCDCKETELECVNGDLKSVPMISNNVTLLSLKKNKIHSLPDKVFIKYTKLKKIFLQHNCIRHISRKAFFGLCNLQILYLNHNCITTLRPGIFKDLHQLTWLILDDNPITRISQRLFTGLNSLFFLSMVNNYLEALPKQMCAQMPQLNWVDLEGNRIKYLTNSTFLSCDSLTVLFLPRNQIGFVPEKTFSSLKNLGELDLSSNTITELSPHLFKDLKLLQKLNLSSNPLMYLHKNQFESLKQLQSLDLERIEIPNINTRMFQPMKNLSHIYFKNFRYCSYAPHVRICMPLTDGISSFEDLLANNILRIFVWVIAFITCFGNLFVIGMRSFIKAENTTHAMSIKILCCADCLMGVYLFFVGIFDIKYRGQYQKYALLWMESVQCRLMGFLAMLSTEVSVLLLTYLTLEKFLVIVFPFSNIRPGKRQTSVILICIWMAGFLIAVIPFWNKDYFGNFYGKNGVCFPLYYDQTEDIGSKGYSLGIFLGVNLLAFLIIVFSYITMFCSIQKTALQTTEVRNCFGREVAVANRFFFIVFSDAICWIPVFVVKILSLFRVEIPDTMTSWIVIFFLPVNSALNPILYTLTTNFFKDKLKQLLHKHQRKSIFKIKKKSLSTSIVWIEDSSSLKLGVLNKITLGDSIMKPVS

| Binder | IC50 (human GPCR135 [1]) | EC50, inhibition of forskolin stimulated β-galactosidase expression (human GPCR135 [2]) | EC50, ligand stimulated β-galactosidase expression (human LGR7 [3]) | EC50, inhibition of forskolin stimulated β-galactosidase expression (human GPCR142 [4]) | binding result (human LGR8 [6]) | IC50 (human GPCR142 [7]) | IC50 (human LGR7 [8]) | IC50 (human LGR8 [9]) | EC50, ligand stimulated β-galactosidase expression (human LGR8 [10]) | also measured |
| --- | --- | --- | --- | --- | --- | --- | --- | --- | --- | --- |
| Relaxin-3/INSL6 (R3/I6) chimeric polypeptide (ligand, human, disulfide (positions not given here), domain: A-chain; Two chains joined by disulfide bonds; FLAG tag removed) chain 1: RAAPYGVRLCGREFIRAVIFTCGGSRW chain 2: GYSEKCCLTGCTKEELSIAC | 9.5 nM | 8.4 nM | 13.7 nM | 11.2 nM | no binding | 11.3 nM | 12.9 nM |  |  | IC50 (human LGR7 [5]): 15 nM |
| Relaxin-3/INSL3 (R3/I3) chimeric polypeptide (ligand, human, disulfide (positions not given here), domain: A-chain; Two chains joined by disulfide bonds; FLAG tag removed) chain 1: RAAPYGVRLCGREFIRAVIFTCGGSRW chain 2: NPARYCCLSGCTQQDLLTLC |  |  | 2.5 nM | 2.9 nM |  | 3.5 nM | 2.3 nM | 475 nM | 258 nM | IC50 (human LGR8 [11]): 500 nM |
| RAAPYGVRLCGREFIRAVIFTCGGSRW [synthetic human relaxin-3 B-chain] |  |  |  |  |  |  |  |  |  | inhibition of forskolin-stimulated β-galactosidase activity in SK-N-MC/β-gal cells, EC50 (human GPCR135 [12]): 88 nM; inhibition of forskolin-stimulated β-galactosidase activity in SK-N-MC/β-gal cells, EC50 (human GPCR142 [13]): 125 nM |
| human INSL3 (ligand, ends and bridges not checked; also: also used as 125I-labelled tracer) chain 1: PTPEMREKLCGHHFVRALVRVCGGPRWSTEA chain 2: AAATNPARYCCLSGCTQQDLLTLCPY |  |  |  |  |  |  |  |  |  | induction of β-galactosidase activity in SK-N-MC/β-gal cells, EC50 (human LGR8 [14]): 0.16 nM |
| Relaxin-3/Relaxin-1 (R3/R1) chimeric polypeptide (ligand, human, disulfide (positions not given here), domain: A-chain; Two chains joined by disulfide bonds; Made in COS-7 cells with furin, FLAG tag removed with enterokinase) chain 1: RAAPYGVRLCGREFIRAVIFTCGGSRW chain 2: RPYVALFEKCCLIGCTKRSLAKYC | 2.9 nM | 1.8 nM | 4.5 nM |  |  | 2.6 nM | 5.1 nM | > 1000 nM | > 1000 nM |  |
| Relaxin-3/INSL5 (R3/I5) chimeric polypeptide (ligand, disulfide (positions not given here); also: two chains joined by disulfide bonds, places not given here, Two chains joined by disulfide bonds; FLAG tag removed with enterokinase; also called R3/I5 chimera; I5/R3) chain 1: RAAPYGVRLCGREFIRAVIFTCGGSRW chain 2: DLQTLCCTDGCSMTDLSALC | 0.68 nM | 0.45 nM | 412 nM | 0.91 nM | no binding | 1.4 nM | 724 nM |  |  | IC50 (rat LGR7): > 400 nM; Kd (human GPCR135 [15]): ~0.5 nM; Kd (human LGR7 [16]): ~500 nM; IC50 (human LGR7 [17]): ~500 nM; IC50 (rat GPCR135 [18]): 0.5 nM; fold selective over rat LGR7 (rat GPCR135 [19]): 800 fold |
| Relaxin-3/Relaxin-2 (R3/R2) chimeric polypeptide (ligand, human, disulfide (positions not given here); also: two chains joined by disulfide bonds, pairing not given here, domain: A-chain; Two chains joined by disulfide bonds; FLAG tag removed) chain 1: RAAPYGVRLCGREFIRAVIFTCGGSRW chain 2: QLYSALANKCCHVGCTKRSLARFC | 1.2 nM | 1.1 nM | 1.1 nM | 1.4 nM |  | 1.8 nM | 1.5 nM | 615 nM | 575 nM |  |
| Relaxin-3/INSL4 (R3/I4) chimeric polypeptide (ligand, human, disulfide (positions not given here), domain: A-chain; Two chains joined by disulfide bonds; FLAG tag removed) chain 1: RAAPYGVRLCGREFIRAVIFTCGGSRW chain 2: FDPFCCEVICDDGTSVKLC | > 1000 nM | > 1000 nM |  | > 1000 nM | no binding | > 1000 nM |  |  |  | binding result (human LGR7 [20]): no binding (tested: 1 µM) |
| human relaxin-3 (ligand, ends and bridges not checked; also: also used as 125I-labelled tracer, domain: A-chain; Mature two-chain hormone; also called R3; INSL7) chain 1: RAAPYGVRLCGREFIRAVIFTCGGSRW chain 2: DVLAGLSSSCCKWGCSKSEISSLC |  |  |  |  |  |  |  |  |  | IC50 (rat GPCR135 [21]): 0.3 nM; IC50 (rat GPCR135 [22]): 0.4 nM; stimulation of β-galactosidase activity in SK-N-MC/β-gal cells, EC50 (human LGR7 [23]): 1.4 nM; IC50 (rat GPCR135 [24]): 0.3 nM |
